Data: patent US10350158B2, “2′ fluoro-modified RNAs as immunostimulators” (DUKE UNIVERSITY, priority 2013, dated 2019)
Strand notation (5' to 3'): a small letter for the sugar, then the base; units joined by * are phosphorothioate-linked, units joined directly phosphodiester-linked; [ ] holds rarer units or linkages, { } end groups; capitals alone tell only the bases. {ppp} = triphosphate; r = 2'-OH (RNA); f = 2'-fluoro

What was measured:
[1] = tested on: WM266-4 cells; format: cell-based
Protocol: For the intracellular delivery of immune stimulatory RNAs, RNAs were transfected with the DharmaFECT® Duo liposomal transfection reagent (Thermo Scientific, Waltham, Mass.) at a transfection reagent (μl):RNA (μg) ratio of 3.75:1, according to the manufacturer's instructions. Unless otherwise stated, for the induction of innate immune responses and apoptosis, immune stimulatory RNAs (500 ng/ml) were transfected into 50 to 70% confluent cells. Cells were incubated with an RNA-transfection agent complex for 5 h, followed by replenishment with fresh culture medium. To electroporate cells, 1×10^5 cells suspended in 200 μl Opti-MEM I (Invitrogen) were mixed with 1 μg of immune stimulatory RNAs or 5 μg of 2′Fluoro pyrimidine ribonucleoside triphosphate in 2-mm cuvettes and were electroporated at 300 V for 500 μs using an Electro Square Porator ECM 830 (BTX, San Diego, Calif.). For the knockdown of RNA-sensing PRRs, cells were transfected with PRR-specific siRNAs (25 nM) twice at 2-day intervals using DharmaFECT®-1 (Thermo Scientific). At 5 h after the second siRNA transfection, cells were harvested, replated into a 96-well plate and incubated overnight. Cells were then treated with immune stimulatory RNA transfections. Staurosporine (2 μM) (Sigma, St Louis, Mo.) and recombinant human IFNβ (20 ng/ml) (PeproTech, Rocky Hill, N.J.) were used as positive controls of anti-melanoma cytotoxicity. B18R (100 ng/ml) (eBioscience, San Diego, Calif.) was added directly to the growth media of cells to neutralize IFNβ.
Growth inhibition relative to untreated cells was quantified at 72 h after RNA transfection using an MTT Cell Proliferation Assay Kit (Cayman Chemicals, Ann Arbor, Mich.), according to the manufacturer's instructions. The percent growth inhibition was calculated by using the following equation: % growth inhibition=([O.D.]untreated−[O.D.]treated)/[O.D.]untreated×100. The induction of cell death was measured 48 h after RNA transfection by flow cytometry after staining with Annexin V-PE and 7-Aminoactinomycin D (7-AAD) using the PE Annexin V Apoptosis Detection Kit I (BD Biosciences, San Jose, Calif.) and analyzed using the CellQuest software (BD Biosciences).

[2] = biological target: T1, human TLR3 (Homo sapiens, UniProt O15455); test: HEK-hTLR3-NFκB/SEAP reporter assay; format: cell-based; settings: QUANTI-BLUE
T1 construct: host or cells: HEK293 (HEK-hTLR3-NFκB/SEAP)
T1 sequence (O15455 24-904): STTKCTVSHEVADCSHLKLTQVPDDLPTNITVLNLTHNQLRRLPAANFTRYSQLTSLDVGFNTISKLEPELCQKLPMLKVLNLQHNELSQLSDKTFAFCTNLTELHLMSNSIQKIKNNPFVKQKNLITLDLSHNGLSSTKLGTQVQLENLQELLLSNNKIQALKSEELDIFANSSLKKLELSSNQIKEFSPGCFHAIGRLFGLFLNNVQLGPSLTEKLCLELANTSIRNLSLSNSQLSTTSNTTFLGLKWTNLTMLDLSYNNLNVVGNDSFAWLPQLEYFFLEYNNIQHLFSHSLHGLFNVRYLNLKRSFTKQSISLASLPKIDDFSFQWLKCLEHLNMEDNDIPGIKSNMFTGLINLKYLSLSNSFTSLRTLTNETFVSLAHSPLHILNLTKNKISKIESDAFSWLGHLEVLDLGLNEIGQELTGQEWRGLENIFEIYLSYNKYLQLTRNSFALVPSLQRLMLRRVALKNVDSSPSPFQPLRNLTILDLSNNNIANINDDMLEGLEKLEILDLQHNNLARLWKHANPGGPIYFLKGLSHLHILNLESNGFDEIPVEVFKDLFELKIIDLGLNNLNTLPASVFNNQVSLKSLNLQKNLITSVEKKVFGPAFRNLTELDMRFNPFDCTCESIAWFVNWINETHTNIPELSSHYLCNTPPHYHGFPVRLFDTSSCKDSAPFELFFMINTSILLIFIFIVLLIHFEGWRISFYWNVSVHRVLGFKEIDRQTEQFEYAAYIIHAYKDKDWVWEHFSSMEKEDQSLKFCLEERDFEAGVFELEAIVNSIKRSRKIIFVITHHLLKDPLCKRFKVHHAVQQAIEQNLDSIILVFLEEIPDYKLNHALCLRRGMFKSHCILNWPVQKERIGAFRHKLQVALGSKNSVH
Protocol: The human TLR3 reporter cell, HEK-hTLR3-NFκB/SEAP was purchased from Invivogen. These cells were stably co-transfected with the human TLR3 gene and an inducible SEAP (secreted embryonic alkaline phosphatase) reporter gene into HEK293 cells. The SEAP gene is placed under the control of NF-κB and AP-1. […] SEAP gene expression was measured using the SEAP detection media QUANTI-BLUE (Invivogen), according to the manufacturer's instructions. FIG. 3B is a graph showing that TLR7 is not stimulated by the ssRNAs. Human TLR7-expressing HEK293 cells were kindly provided by Dr. Todd Brennan (Duke University, Durham, N.C.). Treatment with R848 but not with polyI:C, polyI:C-DF and 5′ppp 2′F 10F-DF complexes stimulated HEK-TLR7 cells to produce the inflammatory cytokine IL-8. The data represent the mean of two experiments. Error bars represent the S.D.

[3] = tested on: WM266.4 cells; test: Cellular stability of transfected RNA by RT-PCR; format: in vitro ADME, human; settings: 4, 8, 12 and 24 h after transfection
Protocol: FIG. 6A-FIG. 6D are a set of graphs showing that 2′F modification increases nuclease resistance, cytotoxicity and inflammatory cytokine induction of immunostimulatory 5′ppp ssRNAs. FIG. 6A is a graph showing ability of various modified ssRNAs to inhibit the growth of cells over concentration ranges. WM266-4 cells were treated with transfection reagent alone (mock) or the complex of transfection reagent and 5′ppp 10F containing 2′F pyrimidine, 2′OMe pyrimidine or unmodified pyrimidine (2′OH) at various concentrations. The viral dsRNA analog PolyI:C was used as an experimental control. Growth inhibition was assessed at 72 h post treatments using the MTT assay. FIG. 6B is a set of graphs showing cytokine induction after treatment with the indicated ssRNAs. WM266-4 cells were either treated with transfection reagent alone (mock) or the complex of transfection reagent and 5′ppp 2′OH 10F, 5′ppp 2′F 10F, 5′ppp 2′OMe 10F or poly I:C (0.5 μg/ml each). The secretion of IFNβ and IL-8 by the melanoma cells was analyzed at 24 h after treatment by ELISA. The data represent the mean of three experiments. Error bars represent the S.D.; *P<0.05 (5′ppp 2′F 10F vs 5′ppp 2′OH 10F); P<0.001 (5′ppp 2′OMe 10F vs 5′ppp 2′OH 10F). […] RNAs were analyzed on 12% polyacrylamide gels. […] At 4 h, 8, 12 and 24 h after transfection, total RNAs were isolated and cellular 10F RNA levels were analyzed by RT-PCR. […]

B1: 10F: 5′ppp 2′F pyrimidine ssRNA aptamer, 71 nt, human melanocytic cell-targeting, SEQ ID NO: 4 (nucleic acid)
chain: {ppp}-rGrGrGrArGrGrAfCrGrAfUrGfCrGrGfUrAfCfCfUrGrAfCrArGfCrAfUfCfUfUrGrAfUrArAfUrGrGfUfCfCfUrAfCrGrGrArGfCfCrGfUfUfCfCrArGrAfCrGrAfCfUfCrGfCfCfCrGrA
[1]; 5′ppp 10F variants, 72 h, MTT
  cytotoxicity, fold compared to unmodified 5′ppp RNAs: over 2 fold
[1]; B18R 100 ng/ml, type I IFN decoy receptor
  cell death / apoptosis of melanoma cells on co-treatment with B18R: only partially rescued
[1]; liposomal transfection, 72 h, MTT
  growth inhibition / cytotoxicity (anti-melanoma effect), in words: comparable to levels observed for the gold standard PRR-activating anti-cancer agent, polyI:C
[2]
  stimulation of TLR3 reporter cells (SEAP): not
[3]
  cellular stability compared to unmodified RNAs: improve cellular stability
